Test results taken from patent US20110300138A1 (published 2011).

What was measured:
[1] = target: TSHR with Arg274 mutated to Ala, expressed in CHO cells (human) (UniProt P16473); test: cell-based or functional assay
[2] = target: wild type TSHR expressed in CHO cells (human) (UniProt P16473); test: cell-based or functional assay
[3] = target: TSH receptor (TSHR), full length human, coated on tubes (human) (UniProt P16473); test: inhibition of 125I-TSH binding to TSHR coated tubes; 1 µg/mL, diluted in HBD serum pool
[4] = target: TSHR260-alkaline phosphatase (TSHR260-AP) (human) (UniProt P05187); test: TSHR260-AP bridge ELISA, full length TSHR on wells; 0.1 µg/mL, diluted in HBD
[5] = target: wild type TSHR (human TSH receptor, full length) expressed in CHO cells (human) (UniProt P16473); test: cell-based or functional assay
[6] = target: wild type TSHR (human TSH receptor) expressed in CHO cells (human) (UniProt P16473); test: cell-based or functional assay
[7] = target: TSHR with Thr104 mutated to Ala (expressed in CHO cells) (human) (UniProt P16473); test: cell-based or functional assay
[8] = target: full length wild type human TSHR (human) (UniProt P16473); test: TSHR260-AP bridge ELISA, wild type TSHR on wells; IgG at 10 µg/mL in HBD
[9] = target: full length human TSHR with mutation Arg255 Asp (human) (UniProt P16473); test: TSHR260-AP bridge ELISA, Arg255 Asp TSHR on wells; IgG at 0.5 µg/mL in HBD
[10] = target: full length human TSHR with mutation Arg255 Asp (human) (UniProt P16473); test: TSHR260-AP bridge ELISA, Arg255 Asp TSHR on wells; IgG at 10 µg/mL in HBD
[11] = target: full length wild type human TSHR (human) (UniProt P16473); test: TSHR260-AP bridge ELISA, wild type TSHR on wells; IgG at 0.1 µg/mL in HBD
[12] = target: TSH receptor (TSHR), full length human, coated on tubes (human) (UniProt P16473); test: inhibition of 125I-TSH binding to TSHR coated tubes; 0.01 µg/mL, diluted in HBD serum pool
[13] = target: TSHR260-alkaline phosphatase (TSHR260-AP) (human) (UniProt P05187); test: TSHR260-AP bridge ELISA, full length TSHR on wells; 0.005 µg/mL, diluted in HBD

Chain of M22 IgG (antibody) (VH): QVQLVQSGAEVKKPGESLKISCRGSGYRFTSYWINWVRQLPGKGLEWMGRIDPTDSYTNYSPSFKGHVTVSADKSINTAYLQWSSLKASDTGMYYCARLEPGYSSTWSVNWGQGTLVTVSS
Chain of M22 IgG (antibody) (V domain): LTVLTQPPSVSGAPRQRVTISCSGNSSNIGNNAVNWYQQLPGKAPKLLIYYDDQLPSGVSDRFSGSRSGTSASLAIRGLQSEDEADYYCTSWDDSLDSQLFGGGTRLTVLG

5B3 IgG (antibody)
% inhibition of TSH stimulation; 5B3 10 µg/mL [1]: 0%
% inhibition of TSH stimulation; 5B3 100 µg/mL [1]: 4%
Cyclic AMP produced; 5B3 10 µg/mL + TSH 3 ng/mL [1]: 106 pmol/mL
Cyclic AMP produced; 5B3 10 µg/mL + TSH 3 ng/mL (second row printed with 10 µg/mL) [1]: 95.3 pmol/mL
Mutated/wild type (%) of cyclic AMP produced; 5B3 10 µg/mL + TSH 3 ng/mL [1]: 92%
Mutated/wild type (%) of cyclic AMP produced; 5B3 10 µg/mL + TSH 3 ng/mL (second row printed with 10 µg/mL) [1]: 79%
% inhibition of TSH stimulation; 5B3 10 µg/mL [2]: 0%
% inhibition of TSH stimulation; 5B3 100 µg/mL [2]: 0%
Cyclic AMP produced; 5B3 10 µg/mL + TSH 3 ng/mL [2]: 116 pmol/mL
Cyclic AMP produced; 5B3 10 µg/mL + TSH 3 ng/mL (second row printed with 10 µg/mL) [2]: 121 pmol/mL
Inhibition of binding (%) [3]: -4.9%
Mean absorbance at 405 nm (absorbance at 405 nm) [4]: -0.002
% inhibition of TSH stimulation; 5B3 10 µg/mL [5]: 0%
% inhibition of TSH stimulation; 5B3 10 µg/mL; Experiment 1 [5]: 3%
% inhibition of TSH stimulation; 5B3 10 µg/mL; Experiment 2 [5]: 0%
% inhibition of TSH stimulation; 5B3 100 µg/mL [5]: 0%
% inhibition of TSH stimulation; 5B3 100 µg/mL; Experiment 1 [5]: 0%
% inhibition of TSH stimulation; 5B3 100 µg/mL; Experiment 2 [5]: 0%
Cyclic AMP produced; 5B3 10 µg/mL + TSH 3 ng/mL [5]: 53.9 pmol/mL
Cyclic AMP produced; 5B3 10 µg/mL + TSH 3 ng/mL; Experiment 1 [5]: 65.8 pmol/mL
Cyclic AMP produced; 5B3 10 µg/mL + TSH 3 ng/mL; Experiment 2 [5]: 68.6 pmol/mL
Cyclic AMP produced; 5B3 100 µg/mL + TSH 3 ng/mL [5]: 52.6 pmol/mL
Cyclic AMP produced; 5B3 100 µg/mL + TSH 3 ng/mL; Experiment 1 [5]: 68.5 pmol/mL
Cyclic AMP produced; 5B3 100 µg/mL + TSH 3 ng/mL; Experiment 2 [5]: 66.5 pmol/mL
% inhibition of TSH stimulation, Exp 1: 5B3 10 µg/mL [6]: 0%
% inhibition of TSH stimulation, Exp 1: 5B3 100 µg/mL [6]: 0%
% inhibition of TSH stimulation, Exp 2: 5B3 10 µg/mL [6]: 0%
% inhibition of TSH stimulation, Exp 2: 5B3 100 µg/mL [6]: 0%
% inhibition of TSH stimulation: 5B3 10 µg/mL [6]: 0%
% inhibition of TSH stimulation: 5B3 100 µg/mL [6]: 0%
% inhibition of TSH stimulation; 5B3 10 µg/mL [6]: 0%
% inhibition of TSH stimulation; 5B3 100 µg/mL [6]: 0%
Cyclic AMP produced; 5B3 10 µg/mL + TSH 3 ng/mL [6]: 75.6 pmol/mL
Cyclic AMP produced; 5B3 100 µg/mL + TSH 3 ng/mL [6]: 68.3 pmol/mL
% inhibition of TSH stimulation; 5B3 10 µg/mL [7]: 7%
% inhibition of TSH stimulation; 5B3 100 µg/mL [7]: 6%
Cyclic AMP produced; 5B3 10 µg/mL + TSH 3 ng/mL [7]: 59.1 pmol/mL
Cyclic AMP produced; 5B3 100 µg/mL + TSH 3 ng/mL [7]: 60 pmol/mL
Mutated/wild type (%) of cyclic AMP produced; 5B3 10 µg/mL + TSH 3 ng/mL [7]: 71%
Mutated/wild type (%) of cyclic AMP produced; 5B3 100 µg/mL + TSH 3 ng/mL [7]: 68%

M22 IgG (antibody)
Mean absorbance at 405 nm (absorbance at 405 nm) [8]: 1.36
Mean absorbance at 405 nm (absorbance at 405 nm) [9]: 0.262
Mean absorbance at 405 nm (absorbance at 405 nm) [10]: 0.551
Mean absorbance at 405 nm (absorbance at 405 nm) [11]: 0.599
Mean absorbance at 405 nm (absorbance at 405 nm) [4]: 0.365
Inhibition of binding (%) [12]: -0.3%
Mean absorbance at 405 nm (absorbance at 405 nm) [13]: 0.045
